Reference: patent US20190233495A1 (Sanofi, published 2019)
Non-standard residues stand in square brackets, D forms with d. Nle = CCCC[C@H](N)C(=O)O; Aib = CC(C)(N)C(=O)O

T1: RXFP1 receptor (UniProt Q9HBX9 1-757, limits assumed)
T1 sequence (looked up): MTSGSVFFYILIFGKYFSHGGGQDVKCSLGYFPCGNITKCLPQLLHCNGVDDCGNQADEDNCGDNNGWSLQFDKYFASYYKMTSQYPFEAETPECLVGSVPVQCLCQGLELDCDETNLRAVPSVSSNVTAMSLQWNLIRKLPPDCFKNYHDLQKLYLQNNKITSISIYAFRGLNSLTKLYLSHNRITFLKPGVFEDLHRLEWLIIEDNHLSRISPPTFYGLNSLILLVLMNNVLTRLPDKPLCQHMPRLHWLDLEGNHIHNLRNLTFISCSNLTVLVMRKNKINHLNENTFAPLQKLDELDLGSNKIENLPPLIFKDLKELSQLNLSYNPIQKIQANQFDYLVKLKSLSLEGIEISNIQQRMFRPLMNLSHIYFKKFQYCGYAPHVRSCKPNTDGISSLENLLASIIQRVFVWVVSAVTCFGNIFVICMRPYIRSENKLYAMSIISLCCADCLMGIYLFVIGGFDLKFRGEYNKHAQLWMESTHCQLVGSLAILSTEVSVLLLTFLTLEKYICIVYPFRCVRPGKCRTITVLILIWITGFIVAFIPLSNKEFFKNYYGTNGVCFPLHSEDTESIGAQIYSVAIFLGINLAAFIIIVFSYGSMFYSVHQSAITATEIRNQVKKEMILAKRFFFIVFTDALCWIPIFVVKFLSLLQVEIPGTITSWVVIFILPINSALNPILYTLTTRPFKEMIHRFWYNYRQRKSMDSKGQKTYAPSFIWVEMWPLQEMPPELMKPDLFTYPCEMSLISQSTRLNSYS

B1: SEQ ID NO: 54 (peptide)
peptide: Ac-LEGREKVRAQI[Aib][Aib]EGQSTWS[Aib]RKK-NH2
SMILES: CC[C@H](C)[C@H](NC(=O)[C@H](CCC(N)=O)NC(=O)[C@H](C)NC(=O)[C@H](CCCNC(=N)N)NC(=O)[C@@H](NC(=O)[C@H](CCCCN)NC(=O)[C@H](CCC(=O)O)NC(=O)[C@H](CCCNC(=N)N)NC(=O)CNC(=O)[C@H](CCC(=O)O)NC(=O)[C@H](CC(C)C)NC(C)=O)C(C)C)C(=O)NC(C)(C)C(=O)NC(C)(C)C(=O)N[C@@H](CCC(=O)O)C(=O)NCC(=O)N[C@@H](CCC(N)=O)C(=O)N[C@@H](CO)C(=O)N[C@H](C(=O)N[C@@H](Cc1c[nH]c2ccccc12)C(=O)N[C@@H](CO)C(=O)NC(C)(C)C(=O)N[C@@H](CCCNC(=N)N)C(=O)N[C@@H](CCCCN)C(=O)N[C@@H](CCCCN)C(N)=O)[C@@H](C)O
B2: SEQ ID NO: 5 (peptide)
peptide: Ac-LEGREKVRAK(Ac)I[Aib][Aib]EG[Nle]STWS[Aib]RKK(Ac)-NH2
SMILES: CCCC[C@H](NC(=O)CNC(=O)[C@H](CCC(=O)O)NC(=O)C(C)(C)NC(=O)C(C)(C)NC(=O)[C@@H](NC(=O)[C@H](CCCCNC(C)=O)NC(=O)[C@H](C)NC(=O)[C@H](CCCNC(=N)N)NC(=O)[C@@H](NC(=O)[C@H](CCCCN)NC(=O)[C@H](CCC(=O)O)NC(=O)[C@H](CCCNC(=N)N)NC(=O)CNC(=O)[C@H](CCC(=O)O)NC(=O)[C@H](CC(C)C)NC(C)=O)C(C)C)[C@@H](C)CC)C(=O)N[C@@H](CO)C(=O)N[C@H](C(=O)N[C@@H](Cc1c[nH]c2ccccc12)C(=O)N[C@@H](CO)C(=O)NC(C)(C)C(=O)N[C@@H](CCCNC(=N)N)C(=O)N[C@@H](CCCCN)C(=O)N[C@@H](CCCCNC(C)=O)C(N)=O)[C@@H](C)O
B3: SEQ ID NO: 50 (peptide)
peptide: Ac-LEGREKVRAQI[Aib][Aib]EG[Nle]STWS[Aib]RRR-NH2
SMILES: CCCC[C@H](NC(=O)CNC(=O)[C@H](CCC(=O)O)NC(=O)C(C)(C)NC(=O)C(C)(C)NC(=O)[C@@H](NC(=O)[C@H](CCC(N)=O)NC(=O)[C@H](C)NC(=O)[C@H](CCCNC(=N)N)NC(=O)[C@@H](NC(=O)[C@H](CCCCN)NC(=O)[C@H](CCC(=O)O)NC(=O)[C@H](CCCNC(=N)N)NC(=O)CNC(=O)[C@H](CCC(=O)O)NC(=O)[C@H](CC(C)C)NC(C)=O)C(C)C)[C@@H](C)CC)C(=O)N[C@@H](CO)C(=O)N[C@H](C(=O)N[C@@H](Cc1c[nH]c2ccccc12)C(=O)N[C@@H](CO)C(=O)NC(C)(C)C(=O)N[C@@H](CCCNC(=N)N)C(=O)N[C@@H](CCCNC(=N)N)C(=O)N[C@@H](CCCNC(=N)N)C(N)=O)[C@@H](C)O
B4: SEQ ID NO: 55 (peptide)
peptide: Ac-LEGREKVRAQI[Aib][Aib]EG[Nle]SRWS[Aib]RRR-NH2
SMILES: CCCC[C@H](NC(=O)CNC(=O)[C@H](CCC(=O)O)NC(=O)C(C)(C)NC(=O)C(C)(C)NC(=O)[C@@H](NC(=O)[C@H](CCC(N)=O)NC(=O)[C@H](C)NC(=O)[C@H](CCCNC(=N)N)NC(=O)[C@@H](NC(=O)[C@H](CCCCN)NC(=O)[C@H](CCC(=O)O)NC(=O)[C@H](CCCNC(=N)N)NC(=O)CNC(=O)[C@H](CCC(=O)O)NC(=O)[C@H](CC(C)C)NC(C)=O)C(C)C)[C@@H](C)CC)C(=O)N[C@@H](CO)C(=O)N[C@@H](CCCNC(=N)N)C(=O)N[C@@H](Cc1c[nH]c2ccccc12)C(=O)N[C@@H](CO)C(=O)NC(C)(C)C(=O)N[C@@H](CCCNC(=N)N)C(=O)N[C@@H](CCCNC(=N)N)C(=O)N[C@@H](CCCNC(=N)N)C(N)=O
B5: SEQ ID NO: 53 (peptide)
peptide: Ac-LEGREKVRAQI[Aib][Aib]EG[Nle]STYS[Aib]RKK-NH2
SMILES: CCCC[C@H](NC(=O)CNC(=O)[C@H](CCC(=O)O)NC(=O)C(C)(C)NC(=O)C(C)(C)NC(=O)[C@@H](NC(=O)[C@H](CCC(N)=O)NC(=O)[C@H](C)NC(=O)[C@H](CCCNC(=N)N)NC(=O)[C@@H](NC(=O)[C@H](CCCCN)NC(=O)[C@H](CCC(=O)O)NC(=O)[C@H](CCCNC(=N)N)NC(=O)CNC(=O)[C@H](CCC(=O)O)NC(=O)[C@H](CC(C)C)NC(C)=O)C(C)C)[C@@H](C)CC)C(=O)N[C@@H](CO)C(=O)N[C@H](C(=O)N[C@@H](Cc1ccc(O)cc1)C(=O)N[C@@H](CO)C(=O)NC(C)(C)C(=O)N[C@@H](CCCNC(=N)N)C(=O)N[C@@H](CCCCN)C(=O)N[C@@H](CCCCN)C(N)=O)[C@@H](C)O
B6: SEQ ID NO: 51 (peptide)
peptide: Ac-LEGREKVRAQI[Aib][Aib]EG[Nle]STFS[Aib]RKK-NH2
SMILES: CCCC[C@H](NC(=O)CNC(=O)[C@H](CCC(=O)O)NC(=O)C(C)(C)NC(=O)C(C)(C)NC(=O)[C@@H](NC(=O)[C@H](CCC(N)=O)NC(=O)[C@H](C)NC(=O)[C@H](CCCNC(=N)N)NC(=O)[C@@H](NC(=O)[C@H](CCCCN)NC(=O)[C@H](CCC(=O)O)NC(=O)[C@H](CCCNC(=N)N)NC(=O)CNC(=O)[C@H](CCC(=O)O)NC(=O)[C@H](CC(C)C)NC(C)=O)C(C)C)[C@@H](C)CC)C(=O)N[C@@H](CO)C(=O)N[C@H](C(=O)N[C@@H](Cc1ccccc1)C(=O)N[C@@H](CO)C(=O)NC(C)(C)C(=O)N[C@@H](CCCNC(=N)N)C(=O)N[C@@H](CCCCN)C(=O)N[C@@H](CCCCN)C(N)=O)[C@@H](C)O
B7: SEQ ID NO: 1 (peptide)
peptide: Ac-LEGREKVRAQI[Aib]IEGMSKWSKRKK-NH2
SMILES: CC[C@H](C)[C@H](NC(=O)[C@H](CCC(N)=O)NC(=O)[C@H](C)NC(=O)[C@H](CCCNC(=N)N)NC(=O)[C@@H](NC(=O)[C@H](CCCCN)NC(=O)[C@H](CCC(=O)O)NC(=O)[C@H](CCCNC(=N)N)NC(=O)CNC(=O)[C@H](CCC(=O)O)NC(=O)[C@H](CC(C)C)NC(C)=O)C(C)C)C(=O)NC(C)(C)C(=O)N[C@H](C(=O)N[C@@H](CCC(=O)O)C(=O)NCC(=O)N[C@@H](CCSC)C(=O)N[C@@H](CO)C(=O)N[C@@H](CCCCN)C(=O)N[C@@H](Cc1c[nH]c2ccccc12)C(=O)N[C@@H](CO)C(=O)N[C@@H](CCCCN)C(=O)N[C@@H](CCCNC(=N)N)C(=O)N[C@@H](CCCCN)C(=O)N[C@@H](CCCCN)C(N)=O)[C@@H](C)CC
B8: SEQ ID NO: 6 (peptide)
peptide: H-LEGREKVRAQI[Aib]IEGMSKWSKRKK-NH2
SMILES: CC[C@H](C)[C@H](NC(=O)[C@H](CCC(N)=O)NC(=O)[C@H](C)NC(=O)[C@H](CCCNC(=N)N)NC(=O)[C@@H](NC(=O)[C@H](CCCCN)NC(=O)[C@H](CCC(=O)O)NC(=O)[C@H](CCCNC(=N)N)NC(=O)CNC(=O)[C@H](CCC(=O)O)NC(=O)[C@@H](N)CC(C)C)C(C)C)C(=O)NC(C)(C)C(=O)N[C@H](C(=O)N[C@@H](CCC(=O)O)C(=O)NCC(=O)N[C@@H](CCSC)C(=O)N[C@@H](CO)C(=O)N[C@@H](CCCCN)C(=O)N[C@@H](Cc1c[nH]c2ccccc12)C(=O)N[C@@H](CO)C(=O)N[C@@H](CCCCN)C(=O)N[C@@H](CCCNC(=N)N)C(=O)N[C@@H](CCCCN)C(=O)N[C@@H](CCCCN)C(N)=O)[C@@H](C)CC
B9: SEQ ID NO: 52 (peptide)
peptide: Ac-LEGREKVRAQI[Aib][Aib]EG[Nle]SQWS[Aib]RRR-NH2
SMILES: CCCC[C@H](NC(=O)CNC(=O)[C@H](CCC(=O)O)NC(=O)C(C)(C)NC(=O)C(C)(C)NC(=O)[C@@H](NC(=O)[C@H](CCC(N)=O)NC(=O)[C@H](C)NC(=O)[C@H](CCCNC(=N)N)NC(=O)[C@@H](NC(=O)[C@H](CCCCN)NC(=O)[C@H](CCC(=O)O)NC(=O)[C@H](CCCNC(=N)N)NC(=O)CNC(=O)[C@H](CCC(=O)O)NC(=O)[C@H](CC(C)C)NC(C)=O)C(C)C)[C@@H](C)CC)C(=O)N[C@@H](CO)C(=O)N[C@@H](CCC(N)=O)C(=O)N[C@@H](Cc1c[nH]c2ccccc12)C(=O)N[C@@H](CO)C(=O)NC(C)(C)C(=O)N[C@@H](CCCNC(=N)N)C(=O)N[C@@H](CCCNC(=N)N)C(=O)N[C@@H](CCCNC(=N)N)C(N)=O

These binders were tested against T1, RXFP1 receptor (assay: cell-based or functional assay).

Row | cAMP assay in OVCAR 5 cells EC50 [nM] | cAMP assay in OVCAR 5 cells Emax [%] | Binder
1 | 22 | – | B1
2 | 7.4 | 98 | B2
3 | 4.42 | 90 | B3
4 | 4.9 | 88 | B4
5 | 76.2 | 75 | B5
6 | 18.6 | 98 | B6
7 | 42.9 | 91 | B7
8 | 46.3 | 97 | B8
9 | 9.15 | 94 | B9
